Tests used:
[1] = biological target: purified recombinant eEF1A1 (OriGene), biotinylated (UniProt P68104); test: BLI; Octet Red; biotinylated eEF1A1 immobilised on streptavidin-coated biosensors, 90 nM RTp51/p66 heterodimer; kinetic buffer 1 mM phosphate, 15 mM NaCl, 0.002% Tween 20, 0.1 mg/ml gelatin
[2] = biological target: purified recombinant eEF1A1 (OriGene), biotinylated (UniProt P68104); test: BLI; settings: biotinylated eEF1A immobilized on a streptavidin-coated biosensor, 90 nM RT heterodimer, E300R in both RTp51 and RTp66 subunits
[3] = biological target: HaloTag-eEF1A (UniProt P68104); test: FRET or BRET; NanoBRET in HEK293T cells cotransfected with 5 ng RTp66-NanoLuc (donor) and 500 ng HaloTag-eEF1A (acceptor), HaloTag NanoBRET 618 Ligand; BRET ratio of the RSV P-NanoLuc control subtracted, normalized to WT RT
[4] = biological target: HaloTag-eEF1A (UniProt P68104); test: NanoBRET; settings: HEK293T cells cotransfected; n = 3; parent: est. 100; read off a plot
[5] = biological target: HIV-1 reverse transcriptase (Human immunodeficiency virus 1) (UniProt O93215); settings: cited from earlier work

Chain of purified recombinant eEF1A1 (OriGene), biotinylated (P68104 whole entry): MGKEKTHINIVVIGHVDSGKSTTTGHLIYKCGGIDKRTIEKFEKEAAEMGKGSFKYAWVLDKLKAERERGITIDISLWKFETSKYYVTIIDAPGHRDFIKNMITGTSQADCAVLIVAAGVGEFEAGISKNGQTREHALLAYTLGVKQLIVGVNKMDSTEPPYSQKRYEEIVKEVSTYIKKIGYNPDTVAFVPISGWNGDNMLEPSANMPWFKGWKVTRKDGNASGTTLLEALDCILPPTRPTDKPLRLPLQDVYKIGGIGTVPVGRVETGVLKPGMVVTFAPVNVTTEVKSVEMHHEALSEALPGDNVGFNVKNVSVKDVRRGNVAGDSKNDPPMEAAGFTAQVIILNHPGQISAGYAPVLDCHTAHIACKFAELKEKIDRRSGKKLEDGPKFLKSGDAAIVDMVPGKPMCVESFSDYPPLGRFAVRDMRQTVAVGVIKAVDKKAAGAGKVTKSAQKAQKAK
Chain of HaloTag-eEF1A (P68104 whole entry): as above
Chain of eEF1A (P68104 2-462): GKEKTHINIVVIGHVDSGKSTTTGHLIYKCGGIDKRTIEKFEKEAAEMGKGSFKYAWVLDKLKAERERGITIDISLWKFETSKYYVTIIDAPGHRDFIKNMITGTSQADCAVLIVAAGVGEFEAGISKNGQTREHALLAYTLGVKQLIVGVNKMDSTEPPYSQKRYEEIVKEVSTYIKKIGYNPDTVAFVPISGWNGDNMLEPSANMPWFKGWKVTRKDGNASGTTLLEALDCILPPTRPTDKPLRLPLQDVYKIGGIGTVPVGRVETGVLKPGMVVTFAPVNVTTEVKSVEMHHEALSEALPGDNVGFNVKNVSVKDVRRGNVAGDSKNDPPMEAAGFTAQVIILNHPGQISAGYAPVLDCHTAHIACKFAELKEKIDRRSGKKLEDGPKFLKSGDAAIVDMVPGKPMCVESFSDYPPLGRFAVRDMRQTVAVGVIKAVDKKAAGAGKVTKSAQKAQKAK

Substance: 6xHis-tagged E300R mutant RTp51/p66 heterodimer purified from E. coli (complex)
- fold change of koff against the WT heterodimer [1]: 3 fold
- fold weaker binding affinity (KD) than the WT heterodimer [1]: 3 fold

Substance: 6xHis-tagged WT RTp51/p66 heterodimer purified from E. coli (from UniProt P04585) E300R
- Kd ([2]; parent: 3.4787 ± 0.079): 10.3 nM
- koff ([2]; parent: 4.75E-4 ± 2.5E-5): 0.00139 s⁻¹
- kon ([2]; parent: 136350 ± 4150): 135000 1/MS

Substance: HIV-1 RTp66-NanoLuc, D250R (enzyme)
- percent reduction of the BRET ratio against WT RT [3]: 33%

Substance: HIV-1 RTp66-NanoLuc, E297R (enzyme)
- percent reduction of the BRET ratio against WT RT [3]: 20%

Substance: HIV-1 RTp66-NanoLuc, E298R (enzyme)
- percent reduction of the BRET ratio against WT RT [3]: 40%

Substance: HIV-1 RTp66-NanoLuc, E300R (enzyme)
- percent reduction of the BRET ratio against WT RT [3]: 70%

Substance: HIV-1 RTp66-NanoLuc, wild type L303A
- percent of parent [4]: 43 % WT

Substance: eEF1A (from UniProt P68104)
- Kd [5]: 3.5 nM
